From PMC2195602 (The Journal of Experimental Medicine, 1999)

Assays:
[1] = target: T1, human FcγRIIa (CD32) expressed on transfected COS-7 cells (human, UniProt P12318 34-317); assay: flow cytometry on cells
T1 sequence (looked up): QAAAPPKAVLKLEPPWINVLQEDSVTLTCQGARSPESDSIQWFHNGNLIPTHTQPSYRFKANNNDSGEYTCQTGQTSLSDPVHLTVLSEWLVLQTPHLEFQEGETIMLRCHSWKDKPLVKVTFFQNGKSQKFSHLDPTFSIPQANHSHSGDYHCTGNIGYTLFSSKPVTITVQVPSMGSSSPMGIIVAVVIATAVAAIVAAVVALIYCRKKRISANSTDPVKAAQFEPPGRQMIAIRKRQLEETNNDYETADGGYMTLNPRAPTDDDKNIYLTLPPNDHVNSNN

[2] = target: FcγRII (CD32) on K-562 cells (human (endogenous in K-562)) (UniProt P12318); assay: flow cytometry on cells

B1: C-reactive protein (CRP), human (natural protein, UniProt P02741 19-224, looked up)
chain: QTDMSRKAFVFPKESDTSYVSLKAPLTKPLKAFTVCLHFYTELSSTRGYSIFSYATKRQDNEILIFWSKDIGYSFTVGGSEILFEVPEVTVAPVHICTSWESASGIVEFWVDGKPRVRKSLKKGYTVGAEASIILGQEQDSFGGNFEGSQSLVGDIGNVNMWDFVLSPDEINTIYLGGPFSPNVLNWRALKYEVQGEVFTKPQLWP
B1 showed a Kd [1] of 66 nM and a Kd [2] of 97 nM.
